Source: patent US20210302429

Legend:
H1.0K180me2 peptide = tested on: T1, H1.0K180me2 peptide
T1 sequence: AKPVKASKPKKAKPVKPK

[1] = tested on: full length human H1.0 protein
unmodified H1.0 peptide = tested on: T2, unmodified H1.0 peptide
T2 sequence: AKPVKASKPKKAKPVKPK

| Substance | further methylated peptide H1.0K166me1K180me2, LC-MS (H1.0K180me2 peptide) | further methylated peptide H1.0K174me1K180me3, LC-MS (H1.0K180me2 peptide) | further methylated peptide H1.0K174me3K175me3K177me1K180me2, LC-MS (H1.0K180me2 peptide) | peptides further methylated, LC-MS (H1.0K180me2 peptide) | in vitro methylation assay with increasing amounts of G9A [1] | sites of methylation, LC-MS [1] | estimated methylation efficiency, LC-MS (unmodified H1.0 peptide) | in vitro methylation with tritium-labeled methyl donor, gel autoradiography (unmodified H1.0 peptide) | peptides dimethylated at K180, LC-MS spectral counts (unmodified H1.0 peptide) |
| --- | --- | --- | --- | --- | --- | --- | --- | --- | --- |
| G9A methyltransferase | 1.27% of the total peptide in the reaction | 1.06% of the total peptide in the reaction | 0.35% of the total peptide in the reaction | only 2.64% of peptides are further methylated | G9A is capable of dimethylating full length H1.0 at K180 | G9A methylates C-terminal lysine residues, including H1.0K180me2 | an estimated methylation efficiency of about 99% | The appearance of a band at 4 kDa shows that The G9A methyltransferase capable of methylating H1.0 peptide | 99.9% of all peptides |
| GLP methyltransferase | – | – | – | 1.02% of peptides are further methylated | – | GLP methylates a large number of lysine residues on the C-terminal tail of H1.0, lacking the specificity of G9A | – | – | 96.6% of all peptides |
